Drawing on article PMC2711571 (The Journal of Cell Biology, 2009), this text covers Kd, stoichiometry N and IC50 for two molecules.

As a reminder, the Kd is the equilibrium constant for the complex coming apart. Read a high Kd as weaker binding. One may read the stoichiometry N as the number of molecules, sites or subunits per partner or assembly. The term IC50 denotes the point on the concentration scale where inhibition reaches its midpoint.

The target of assay [1] is Rat tail collagen type I, neutralized fibrillar (rat) (UniProt P02454). Briefly: ELISA.
Sequence of Rat tail collagen type I, neutralized fibrillar (rat) (P02454 152-1207, chain 1 of 2): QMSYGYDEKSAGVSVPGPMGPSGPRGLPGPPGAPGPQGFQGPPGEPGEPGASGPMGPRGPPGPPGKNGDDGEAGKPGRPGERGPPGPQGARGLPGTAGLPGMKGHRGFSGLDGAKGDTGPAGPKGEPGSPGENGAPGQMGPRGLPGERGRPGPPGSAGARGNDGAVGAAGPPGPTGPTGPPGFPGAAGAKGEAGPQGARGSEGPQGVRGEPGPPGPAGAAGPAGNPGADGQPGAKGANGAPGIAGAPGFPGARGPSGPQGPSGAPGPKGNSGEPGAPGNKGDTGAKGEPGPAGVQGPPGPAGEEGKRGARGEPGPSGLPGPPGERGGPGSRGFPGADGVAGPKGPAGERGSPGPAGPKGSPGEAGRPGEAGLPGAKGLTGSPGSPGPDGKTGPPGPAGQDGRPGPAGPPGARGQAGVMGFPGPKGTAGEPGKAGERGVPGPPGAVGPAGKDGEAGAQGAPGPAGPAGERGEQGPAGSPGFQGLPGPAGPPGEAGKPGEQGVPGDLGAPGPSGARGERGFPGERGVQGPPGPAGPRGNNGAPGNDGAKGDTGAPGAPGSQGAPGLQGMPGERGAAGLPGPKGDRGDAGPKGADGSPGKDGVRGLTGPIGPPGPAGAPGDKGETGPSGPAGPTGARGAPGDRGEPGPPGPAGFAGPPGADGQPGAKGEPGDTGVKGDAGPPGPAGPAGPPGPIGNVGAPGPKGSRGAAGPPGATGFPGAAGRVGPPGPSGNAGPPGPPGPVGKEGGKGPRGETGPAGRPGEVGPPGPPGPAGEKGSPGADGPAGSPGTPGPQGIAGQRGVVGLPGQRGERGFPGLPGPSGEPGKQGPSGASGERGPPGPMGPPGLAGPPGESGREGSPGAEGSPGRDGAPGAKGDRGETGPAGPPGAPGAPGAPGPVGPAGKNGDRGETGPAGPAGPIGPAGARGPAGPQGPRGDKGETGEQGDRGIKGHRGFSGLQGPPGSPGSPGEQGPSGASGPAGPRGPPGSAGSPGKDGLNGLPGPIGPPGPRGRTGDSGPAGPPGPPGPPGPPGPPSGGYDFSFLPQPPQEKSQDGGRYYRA
Sequence of Rat tail collagen type I, neutralized fibrillar (rat) (P02466 86-1125, chain 2 of 2, further chain): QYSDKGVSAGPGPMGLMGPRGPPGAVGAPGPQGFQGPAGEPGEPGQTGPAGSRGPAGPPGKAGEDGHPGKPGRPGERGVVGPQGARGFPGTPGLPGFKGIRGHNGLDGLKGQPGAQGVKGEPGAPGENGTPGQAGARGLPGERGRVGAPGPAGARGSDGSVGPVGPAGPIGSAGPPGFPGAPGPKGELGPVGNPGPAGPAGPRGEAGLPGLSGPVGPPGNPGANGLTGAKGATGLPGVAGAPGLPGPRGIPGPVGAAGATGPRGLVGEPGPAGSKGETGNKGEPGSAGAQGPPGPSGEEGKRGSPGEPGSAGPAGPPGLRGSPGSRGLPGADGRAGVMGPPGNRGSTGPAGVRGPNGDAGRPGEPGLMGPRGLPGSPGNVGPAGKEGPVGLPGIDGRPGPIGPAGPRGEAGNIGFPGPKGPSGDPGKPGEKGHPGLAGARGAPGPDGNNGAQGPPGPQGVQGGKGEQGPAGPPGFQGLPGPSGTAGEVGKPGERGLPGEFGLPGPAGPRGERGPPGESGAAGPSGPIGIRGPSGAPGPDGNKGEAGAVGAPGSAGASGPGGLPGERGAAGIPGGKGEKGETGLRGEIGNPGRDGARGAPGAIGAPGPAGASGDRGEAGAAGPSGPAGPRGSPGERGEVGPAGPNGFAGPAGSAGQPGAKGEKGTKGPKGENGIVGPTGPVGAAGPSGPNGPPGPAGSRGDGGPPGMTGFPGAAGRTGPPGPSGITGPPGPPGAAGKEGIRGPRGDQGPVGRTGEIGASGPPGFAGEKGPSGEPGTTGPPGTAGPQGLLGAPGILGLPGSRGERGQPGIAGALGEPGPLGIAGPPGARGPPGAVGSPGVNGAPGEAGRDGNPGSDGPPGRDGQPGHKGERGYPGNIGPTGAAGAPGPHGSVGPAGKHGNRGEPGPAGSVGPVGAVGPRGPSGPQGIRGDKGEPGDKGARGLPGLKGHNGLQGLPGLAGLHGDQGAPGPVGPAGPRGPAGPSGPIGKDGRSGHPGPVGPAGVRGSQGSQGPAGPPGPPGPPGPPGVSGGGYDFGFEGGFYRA
Assay [2] has as its target Human Met-Fc chimera (human) (UniProt P08581). Put plainly: ELISA. A general note: ELISA stands for enzyme-linked immunosorbent assay.
The target in assay [3] is Met receptor (human (endogenous in HeLa)) (UniProt P08581). Briefly: cross-linking + co-IP.
Sequence of Met receptor (human (endogenous in HeLa)) (P08581 25-1390): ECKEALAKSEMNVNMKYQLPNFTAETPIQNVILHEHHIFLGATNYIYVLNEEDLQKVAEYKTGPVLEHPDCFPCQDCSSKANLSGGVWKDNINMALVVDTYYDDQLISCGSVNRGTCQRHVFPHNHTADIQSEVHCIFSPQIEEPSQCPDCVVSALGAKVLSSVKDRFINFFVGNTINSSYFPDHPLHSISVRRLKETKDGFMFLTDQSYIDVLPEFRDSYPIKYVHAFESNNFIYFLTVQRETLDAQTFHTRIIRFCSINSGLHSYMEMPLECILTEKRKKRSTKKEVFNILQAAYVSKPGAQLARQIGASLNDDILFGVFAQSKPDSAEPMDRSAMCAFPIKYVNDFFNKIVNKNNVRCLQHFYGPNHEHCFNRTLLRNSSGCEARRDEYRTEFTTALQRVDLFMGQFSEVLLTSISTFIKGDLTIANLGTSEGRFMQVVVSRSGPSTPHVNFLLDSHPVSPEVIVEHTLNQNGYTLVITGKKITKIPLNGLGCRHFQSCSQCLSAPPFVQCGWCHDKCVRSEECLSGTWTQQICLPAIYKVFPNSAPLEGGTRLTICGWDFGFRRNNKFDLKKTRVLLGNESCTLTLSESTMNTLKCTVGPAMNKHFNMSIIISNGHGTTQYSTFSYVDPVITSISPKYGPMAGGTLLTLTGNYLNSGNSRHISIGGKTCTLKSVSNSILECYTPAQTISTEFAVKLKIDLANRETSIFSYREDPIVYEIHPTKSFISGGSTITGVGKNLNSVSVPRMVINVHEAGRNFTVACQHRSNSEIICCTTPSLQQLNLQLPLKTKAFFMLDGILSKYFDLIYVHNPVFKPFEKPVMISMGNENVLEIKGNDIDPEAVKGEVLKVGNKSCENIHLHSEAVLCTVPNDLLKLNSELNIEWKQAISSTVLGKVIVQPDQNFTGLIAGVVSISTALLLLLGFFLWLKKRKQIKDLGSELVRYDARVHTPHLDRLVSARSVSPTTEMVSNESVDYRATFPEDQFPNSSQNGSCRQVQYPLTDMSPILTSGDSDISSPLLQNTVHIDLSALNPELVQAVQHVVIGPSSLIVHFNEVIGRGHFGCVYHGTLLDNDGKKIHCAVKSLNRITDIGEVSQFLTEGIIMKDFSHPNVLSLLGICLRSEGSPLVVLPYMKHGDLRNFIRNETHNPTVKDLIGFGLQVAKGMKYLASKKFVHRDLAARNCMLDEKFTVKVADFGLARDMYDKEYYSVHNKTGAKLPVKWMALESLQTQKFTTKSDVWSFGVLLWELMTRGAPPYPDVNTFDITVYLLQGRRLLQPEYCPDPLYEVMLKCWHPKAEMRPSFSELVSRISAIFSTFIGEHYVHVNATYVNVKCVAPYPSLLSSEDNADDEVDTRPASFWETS
For assay [4], the target named is T1, Human Met-Fc chimera (human, UniProt P08581 25-932, fully glycosylated). Put plainly: ELISA.
T1 sequence (P08581 25-932, change not shown): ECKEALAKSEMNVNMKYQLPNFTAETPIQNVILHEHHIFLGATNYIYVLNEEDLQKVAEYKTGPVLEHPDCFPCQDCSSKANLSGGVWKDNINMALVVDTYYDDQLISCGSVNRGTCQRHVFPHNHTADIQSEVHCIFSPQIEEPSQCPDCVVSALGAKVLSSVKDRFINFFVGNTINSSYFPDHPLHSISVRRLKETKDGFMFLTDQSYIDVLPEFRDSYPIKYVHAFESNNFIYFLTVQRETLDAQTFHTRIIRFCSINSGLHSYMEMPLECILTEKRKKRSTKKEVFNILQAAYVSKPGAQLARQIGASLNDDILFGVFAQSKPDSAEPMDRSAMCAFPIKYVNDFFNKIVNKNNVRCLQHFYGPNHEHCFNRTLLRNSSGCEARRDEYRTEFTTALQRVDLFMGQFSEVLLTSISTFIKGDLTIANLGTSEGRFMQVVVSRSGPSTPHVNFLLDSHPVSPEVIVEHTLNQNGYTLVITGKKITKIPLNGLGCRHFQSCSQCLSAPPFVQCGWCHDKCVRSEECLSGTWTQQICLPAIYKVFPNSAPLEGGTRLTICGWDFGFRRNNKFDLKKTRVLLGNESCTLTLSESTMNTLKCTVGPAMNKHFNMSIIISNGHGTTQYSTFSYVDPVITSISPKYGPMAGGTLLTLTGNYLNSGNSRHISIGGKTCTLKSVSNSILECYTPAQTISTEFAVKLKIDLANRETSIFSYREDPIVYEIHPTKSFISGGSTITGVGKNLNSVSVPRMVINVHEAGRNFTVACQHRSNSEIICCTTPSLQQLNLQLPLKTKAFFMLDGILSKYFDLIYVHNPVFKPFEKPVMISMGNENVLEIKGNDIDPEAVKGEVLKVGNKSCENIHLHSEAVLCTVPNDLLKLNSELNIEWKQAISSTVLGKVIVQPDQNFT
Assay [5] concerns the target T1, Human Met-Fc chimera. Briefly: ELISA. This is another data set of the same source.

Values joined by “and” are separate entries in the source; they are usually repeats but may differ in a detail not shown here. Equal entries are not always repeated.

Sequence of Human Met-Fc chimera (human) (P08581 25-932, change not shown): as above

As to “Decorin protein core (from UniProt P07585 31-359) (ligand)”, the Kd is 0.28 nM in assay [1] and 1.5 nM in assay [2]. Also, the stoichiometry N in assay [3] worked out at 1.

B1: Internalin B (ligand)
chain: AKVQAETITVPTPIKQIFSDDAFAETIKDNLKKKSVTDAVTQNELNSIDQIIANNSDIKSVQGIQYLPNVTKLFLNGNKLTDIKPLANLKNLGWLFLDENKVKDLSSLKDLKKLKSLSLEHNGISDINGLVHLPQLESLYLGNNKITDITVLSRLTKLDTLSLEDNQISDIVPLAGLTKLQNLYLSKNHISDLRALAGLKNLDVLELFSQECLNKPINHQSNLVVPNTVKNTDGSLVTPEIISDDGDYEKPNVKWHLPEFTNEVSFIFYQPVTIGKAKARFHGRVTQPLKEVYTVSYDVDGTVIKTKVEAGTRITAPKPPTKQGYVFKGWYTEKNGGHEWNFNTDYMSGNDFTLYAVFKAETTEKAVNLTRYVKYIRGNAGIYKLPREDNSLKQGTLASHRCKALTVDREARNGGKLWYRLKNIGWTKAENLSLDRYDKMEYDKGVTAYARVRNASGNSVWTKPYNTAGAKHVNKLSVYQGKNMRILREAKTPITTWYQFSIGGKVIGWVDTRALNTFYKQSMEKPTRLTRYVSANKAGESYYKVPVADNPVKRGTLAKYKNQKLIVDCQATIEGQLWYRIRTSSTFIGWTKAANLRAQK
As to B1, the Kd in the assay with Human Met-Fc chimera [4] amounted to 2.16 nM. Further, the IC50 in the assay with Human Met-Fc chimera [5] is ~120 nM and ~180 nM.
